Results from publication PMC11753425.
Each block holds one substance with its values, some of them ahead of it.

Legend:
[1] = target: full-length OrfG-A204C-A264C produced in S. thermophilus (Streptococcus thermophilus); assay: cross-linking; disulfide cross-linking of engineered cysteines in S. thermophilus; membrane fractions with or without DTT, SDS-PAGE, Western blot with Ab-G
[2] = target: OrfGExt-A204C-A264C (Streptococcus thermophilus); assay: crystal structure; sitting drop, 20°C; WT in 1.26 M ammonium sulfate, 100 mM sodium cacodylate pH 6.5; A204C-A264C in 40% PEG 300, 100 mM potassium phosphate citrate pH 4.2
[3] = target: OrfGExt-A204C-A264C (Streptococcus thermophilus); assay: SEC-MALS; soluble proteins, Superdex 200 Increase, 50 mM tris-HCl, 100 mM NaCl, pH 8
[4] = target: Orf13-V164C-Q280C (not stated (Tn916, an ICE widespread in Enterococcus faecalis and other firmicutes)); assay: as above
[5] = target: OrfGExt (purified, WT) (Streptococcus thermophilus); assay: crystal structure; sitting drop, 20°C; WT in 1.26 M ammonium sulfate, 100 mM sodium cacodylate pH 6.5; A204C-A264C in 40% PEG 300, 100 mM potassium phosphate citrate pH 4.2
[6] = target: full-length OrfG-A204C-A264C (purified) (Streptococcus thermophilus); assay: SEC-MALS; membrane proteins, Superose 6 10/300 Increase, 50 mM tris-HCl pH 8, 300 mM NaCl, 0.1% OGNG

stoichiometry N [1]: 3
Substance: full-length OrfG-A204C-A264C produced in S. thermophilus (natural protein)

stoichiometry N [2]: 3
stoichiometry N [3]: 3
Substance: OrfGExt-A204C-A264C (domain or fragment)

Substance: Orf13-V164C-Q280C (domain or fragment)
stoichiometry N [4]: 3

stoichiometry N [5]: 3
Substance: OrfGExt (purified, WT) (domain or fragment)

stoichiometry N [6]: 3
Substance: full-length OrfG-A204C-A264C (purified) (natural protein)
